This experiment has as its target Thermococcus kodakarensis RNA polymerase (Thermococcus kodakarensis).

B1: Spt4-Spt5 complex (complex)
chain 1: MAKERACRHCHYITTEDRCPVCGSRDLSDDWFDLVIVLDVESRIAKKLRESIPEAAKVPGKYAIRVR
chain 2: MAEGKIFTVSVTVGQETTTANLIYSKAKTYNLPLYAILSPSKVKGYIFIEAPNKSAVEEAIRGIRHAKRVLPGEIPFSEIEHFLEEKPAVSGFEPGDIVELIAGPFKGEKAKVVRVDESKDEIVVELVSSVVPIPVTVRGEYVRLISKRQKE
As to B1, the elongation rate on histone-bound (HTkB) templates, against no factor is 1.5 fold.

The record behind these values is paper PMC6417941.
